Laboratory results: patent US20200138716A1, “COMPOSITIONS AND METHODS FOR INDUCING NANOPARTICLE-MEDIATED MICROVASCULAR EMBOLIZATION OF TUMORS” (Poseida Therapeutics, Inc., priority 2014, published 2020)

Tests used:
[1] = Biodistribution and pharmacokinetics after IV injection in 4T1 tumor-bearing mice; assay type: in vivo, balb/c mice; conditions: via the kidneys and into the bladder
Method: In example studies, 0.5×106 to 1×10^6 4T1 mouse mammary carcinoma cells were injected into the mammary fat pads of balb/c mice. Once the tumors were greater than 5 mm in diameter, mice were randomized and treated via tail vein catheter with PEMs (at 100 μL of 2.5 mg/mL Mb, corresponding to 50 mg/mL polymer suspensions), empty polymersomes (at equivalent polymer doses), and NIR-Mb (at equivalent myoglobin doses) (n=5 per group). NIR-Mb and PEM were reduced to their oxy-myoglobin form prior to treatment, following protocols discussed above. […]
Fluorescence images were analyzed with Living Image) 4.2 software by measuring radiant efficiency of regions of interest (ROIs). […] The total radiant efficiency of the plasma in each capillary tube was measured in a region of interest of consistent dimensions. Plasma concentrations of PEM and empty polymersomes were calculated based on a standard curve, which was first determined by adding solutions of known concentrations of PZn3-loaded emissive polymersomes to untreated plasma and measuring fluorescence from the capillary tubes. […] Myoglobin concentration versus time was estimated based on the PZn3 fluorescence of the PEM and the IRDye800 fluorescence of NIR-Mb, respectively, with the assumption that all myoglobin remained associated with the PEM following injection.

[2] = Serum chemistry panel in tumor-bearing mice; assay type: in vivo; conditions: n=5 mice per treatment
Method: In example studies, 0.5×106 to 1×10^6 4T1 mouse mammary carcinoma cells were injected into the mammary fat pads of balb/c mice. Once the tumors were greater than 5 mm in diameter, mice were randomized and treated via tail vein catheter with PEMs (at 100 μL of 2.5 mg/mL Mb, corresponding to 50 mg/mL polymer suspensions), empty polymersomes (at equivalent polymer doses), and NIR-Mb (at equivalent myoglobin doses) (n=5 per group). NIR-Mb and PEM were reduced to their oxy-myoglobin form prior to treatment, following protocols discussed above. Mice were sacrificed at 24 h (for biodistribution/pharmacokinetic studies) or at 6-9 days (for histology and toxicology assessment following tumor efficacy studies). In both cases, EF-5 was used to stain for hypoxia and Hoechst solution for perfusion. Tumors were collected at sacrifice. Immunofluorescence (IF) was carried out to image EF-5 and Hoechst distribution throughout the tumors. The same tumor sections were also stained with hematoxylin and eosin (H&E) for immunohistologic (IHC) analysis. Blood was collected via cardiac puncture at sacrifice; plasma was isolated and stored at −80° C. for later analyses.
FIG. 21 provides results of a serum chemistry panel done for a set of tumor-bearing mice injected with each of the following treatments (n=5 mice per treatment): NIR-myoglobin (control), empty polymersomes (control), and PEMs.

B1: NIR-Mb: near-infrared fluorophore (IRDye800cw NHS) covalently attached to the lysines on horse skeletal myoglobin (conjugate, UniProt P68082 2-154, looked up)
Myoglobin: GLSDGEWQQVLNVWGKVEADIAGHGQEVLIRLFTGHPETLEKFDKFKHLKTEAEMKASEDLKKHGTVVLTALGGILKKKGHHEAELKPLAQSHATKHKIPIKYLEFISDAIIHVLHSKHPGDFGADAQGAMTKALELFRNDIAAKYKELGFQG
modifications: IRDye800CW on lysines
notes: near-infrared fluorophore (IRDye800cw NHS) covalently attached to the lysines on horse skeletal myoglobin
plasma clearance [1]: extremely rapid plasma clearance | serum chemistry panel [2]: no consistently elevated levels for any parameter
